# Laboratory results: paper PMC9950535, “Divalent metal cofactors differentially modulate RadA-mediated strand invasion and exchange in Saccharolobus solfataricus” (Bioscience Reports, 2023)
# T1: SsoRadA (Saccharolobus solfataricus, UniProt Q55075)
# T1 construct: gene radA
# T1 sequence (Q55075 1-324): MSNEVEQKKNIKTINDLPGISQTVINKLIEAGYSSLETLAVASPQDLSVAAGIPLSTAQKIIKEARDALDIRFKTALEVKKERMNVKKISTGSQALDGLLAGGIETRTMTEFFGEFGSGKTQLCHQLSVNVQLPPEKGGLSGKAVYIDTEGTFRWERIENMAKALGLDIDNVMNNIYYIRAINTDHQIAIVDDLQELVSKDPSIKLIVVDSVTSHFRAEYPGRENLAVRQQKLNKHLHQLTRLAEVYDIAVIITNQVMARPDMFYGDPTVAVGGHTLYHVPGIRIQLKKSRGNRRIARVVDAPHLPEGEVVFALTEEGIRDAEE
# T2: SsoRadA (Saccharolobus solfataricus, UniProt Q55075 1-324)
# T2 sequence: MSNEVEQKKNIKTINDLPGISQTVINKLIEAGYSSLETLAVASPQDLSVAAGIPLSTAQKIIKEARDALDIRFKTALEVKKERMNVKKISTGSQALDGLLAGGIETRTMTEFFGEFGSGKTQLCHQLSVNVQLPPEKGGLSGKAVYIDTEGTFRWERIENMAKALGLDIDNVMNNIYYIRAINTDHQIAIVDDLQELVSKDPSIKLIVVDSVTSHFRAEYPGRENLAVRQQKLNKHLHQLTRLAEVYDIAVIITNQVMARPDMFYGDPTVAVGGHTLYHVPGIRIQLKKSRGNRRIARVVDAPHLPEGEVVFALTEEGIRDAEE
# Key:
# [1] = target: T1, SsoRadA; experiment: filter binding
# [2] = target: T1, SsoRadA; experiment: TLC ATPase assay, [γ-32P]ATP; format: biochemical
# [3] = target: T2, SsoRadA; experiment: filter binding; 10 mM Mn2+, no ATP; Filter binding: 40 mM HEPES pH 7.0, 50 mM KCl, 10 mM CaCl2, MgCl2 or MnCl2, 20 pmol SsoRadA, 3 uM ATP where included, ssDNA varied; temperature not stated; conditions: protein: recombinant; single strand
# [4] = target: T2, SsoRadA; experiment: filter binding; 10 mM Mg2+, 3 uM ATP; Filter binding: 40 mM HEPES pH 7.0, 50 mM KCl, 10 mM CaCl2, MgCl2 or MnCl2, 20 pmol SsoRadA, 3 uM ATP where included, ssDNA varied; temperature not stated; conditions: protein: recombinant; single strand
# [5] = target: T2, SsoRadA; experiment: filter binding; 10 mM Mn2+, 3 uM ATP; Filter binding: 40 mM HEPES pH 7.0, 50 mM KCl, 10 mM CaCl2, MgCl2 or MnCl2, 20 pmol SsoRadA, 3 uM ATP where included, ssDNA varied; temperature not stated; conditions: protein: recombinant; single strand
# [6] = substrate: Nc1ncnc2c1ncn2[C@@H]1O[C@H](COP(=O)(O)OP(=O)(O)OP(=O)(O)O)[C@@H](O)[C@H]1O; experiment: TLC ATPase assay, initial rates; format: biochemical, Saccharolobus solfataricus; conditions: 10 mM Mg2+, 20 μM (nucleotides) φX174 ssDNA, 0.5 μM SsoRadA, 25 mM Tris acetate pH 7.5, 65°C
molecule,measurement,setting,value
Nc1ncnc2c1ncn2[C@@H]1O[C@H](COP(=O)(O)OP(=O)(O)OP(=O)(O)O)[C@@H](O)[C@H]1O [ATP],Kd,[1],1130 ± 440 nM
Nc1ncnc2c1ncn2[C@@H]1O[C@H](COP(=O)(O)OP(=O)(O)O)[C@@H](O)[C@H]1O [ADP],IC50,[2],112 µM
Nc1ncnc2c1ncn2[C@@H]1O[C@H](CO[P@](=O)(O)O[P@](=O)(O)O[P@@](=O)(O)S)[C@@H](O)[C@H]1O [ATPγS],IC50,[2],87.8 µM
63-mer oligonucleotide (ssDNA) DNA: ACAGCACCAATGAAATCTATTAAGCTCCTCATCGTCCGCAAAAATATCGTCACCTCAAAAGGA,Kd,[3],82.4 ± 13.2 nM
same,Kd,[4],21.3 ± 1.6 nM
same,Kd,[5],23.1 ± 14.4 nM
SsoRadA (Saccharolobus solfataricus P2) (protein) MSNEVEQKKNIKTINDLPGISQTVINKLIEAGYSSLETLAVASPQDLSVAAGIPLSTAQKIIKEARDALDIRFKTALEVKKERMNVKKISTGSQALDGLLAGGIETRTMTEFFGEFGSGKTQLCHQLSVNVQLPPEKGGLSGKAVYIDTEGTFRWERIENMAKALGLDIDNVMNNIYYIRAINTDHQIAIVDDLQELVSKDPSIKLIVVDSVTSHFRAEYPGRENLAVRQQKLNKHLHQLTRLAEVYDIAVIITNQVMARPDMFYGDPTVAVGGHTLYHVPGIRIQLKKSRGNRRIARVVDAPHLPEGEVVFALTEEGIRDAEE,Km,[6],2.3 ± 0.47 µM
same,kcat,[6],1.7 ± 0.09 min⁻¹
